Blank lines part the entries; values can stand above or below the binder they belong to.
How the values were obtained:
[1] = target: T1, h5T4-His (cat #19845-H08H, Sino Biological) (human) (UniProt Q13641); assay: ELISA, coated h5T4-His
T1 sequence (looked up): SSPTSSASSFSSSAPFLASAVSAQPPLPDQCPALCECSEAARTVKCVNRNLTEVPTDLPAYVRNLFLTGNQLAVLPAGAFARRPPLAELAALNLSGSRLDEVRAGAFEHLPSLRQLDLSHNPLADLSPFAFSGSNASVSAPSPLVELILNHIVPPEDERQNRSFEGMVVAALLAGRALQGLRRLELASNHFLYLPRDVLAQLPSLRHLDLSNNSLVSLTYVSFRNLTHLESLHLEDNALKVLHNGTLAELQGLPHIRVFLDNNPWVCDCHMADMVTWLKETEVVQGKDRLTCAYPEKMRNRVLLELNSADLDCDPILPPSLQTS

[2] = target: T2, human 5T4 on cells (human) (UniProt Q13641); assay: FACS, NCI-H226 cells
T2 sequence (looked up): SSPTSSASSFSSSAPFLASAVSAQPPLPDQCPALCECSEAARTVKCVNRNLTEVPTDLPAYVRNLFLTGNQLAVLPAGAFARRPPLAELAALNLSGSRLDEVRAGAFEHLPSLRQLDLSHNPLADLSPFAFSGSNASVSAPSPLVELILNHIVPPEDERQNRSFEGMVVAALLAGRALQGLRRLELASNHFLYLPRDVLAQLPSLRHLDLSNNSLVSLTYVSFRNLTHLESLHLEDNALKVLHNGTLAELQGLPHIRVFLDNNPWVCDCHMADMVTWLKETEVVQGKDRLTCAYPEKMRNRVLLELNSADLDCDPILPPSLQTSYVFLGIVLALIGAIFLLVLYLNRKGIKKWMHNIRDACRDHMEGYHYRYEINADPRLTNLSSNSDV

[3] = target: T2, human 5T4 on cells (human); assay: FACS, CHO cells over expressing human 5T4
[4] = target: T2, human 5T4 on cells (human); assay: FACS on NCI-H226 cells (endogenous 5T4)
[5] = target: T2, human 5T4 on cells (human); assay: FACS on CHO cells over expressing 5T4
[6] = target: T2, human 5T4 on cells (human); assay: cell-based or functional assay

B1: CD3X5T4_cl-16XNKG2A (protein, part only; not given: anti-CD3 Fab, anti-NKG2A scFv, linkers, not shown: another chain or arm of the molecule; small tags and cut ends)
VH: AVQLQQSGPVRVKPGASVKMSCKASGYPFTDYYMNWVKQSHGRSLDWIGVFNPYNGDTRYTQKFKDKATLTIDKSSSTAYMELNSLTSEDSAVYYCARLRLLYDTSEYYVMDYWGQGTSVTVSS
VL: ENVLTQSPAIMSASPGEKVTMTCSASSSVNYMHWYQQKSNTSPKLWIYDTSKLASGVPGRFSGSGSGNSYSLTISSMEAEDVATYFCFQGSGYPYTFGGGTKLEIK
EC50 (read off the curve) [1]: 40 nM
EC50 (read off the curve) [2]: 6 nM
EC50 (read off the curve) [3]: 3 nM

B3: CD3x5T4-IM50xNKG2A (protein, part only; not given: anti-CD3 Fab, anti-NKG2A scFv, linkers, not shown: another chain or arm of the molecule; small tags and cut ends)
VH: QVQLVQSGAEVKKPGASVKVSCKASGYPFTDYYMNWVRQAPGRGLEWIGVFNPYNGDTRYTQKFKDKATLTIDKSISTAYMELNRLRSDDTAVYYCARLRLLYDTSEYYVMDYWGQGTTVTVSS
VL: ENVLTQSPATLSLSPGERATLSCSASSSVNYMHWYQQKPGQAPRLLIYDTSKLASGIPARFSGSGSGTDYTLTISSLEPEDFAVYYCFQGSGYPYTFGGGTKVEIK
EC50 (read off the curve) [3]: 5 nM

B4: CD3x5T4-IM49xNKG2A (protein, part only; not given: anti-CD3 Fab, anti-NKG2A scFv, linkers, not shown: another chain or arm of the molecule; small tags and cut ends)
VH: QVQLVQSGAEVKKPGASVKVSCKASGYTFTDYYMNWVRQAPGRGLEWIGVFNPYNGDTRYTQKFKDRATLTIDKSISTAYMELSRLRSDDTAVYYCARLRLLYDTSEYYVMDYWGQGTTVTVS
VL: ENVLTQSPATLSLSPGERATLSCSASSSVNYMHWYQQKPGQAPRLLIYDTSKLASGIPARFSGSGSGTDYTLTISSLEPEDFAVYYCFQGSGYPYTFGGGTKVEIK
EC50 (read off the curve) [3]: 5 nM

B5: CD3x5T4-IM34xNKG2A (protein, part only; not given: anti-CD3 Fab, anti-NKG2A scFv, linkers, not shown: another chain or arm of the molecule; small tags and cut ends)
VH: AVQLVQSGAEVKKPGASVKVSCKASGYTFTDYYMNWVRQAPGQGLEWMGVFNPYNGDTRYTQKFKDKVTMTIDKSTSTVYMELNSLRSEDTAVYYCARLRLLYDTSEYYVMDYWGQGTTVTVSS
VL: ENVLTQSPATLSLSPGERATLSCSASSSVNYMHWYQQKPGQAPRLLIYDTSKLASGIPARFSGSGSGNDFTLTISSLEPEDFAVYYCFQGSGYPYTFGGGTKVEIK
EC50 (read off the curve) [3]: 6 nM

Continued, in another order:

EC50 [4]: 3.9 nM
EC50 [5]: 2.3 nM
B2: IM-1222 Tribody (5T4_IM53-CD3-NKG2A) (protein, part only; not given: anti-CD3 Fab, anti-NKG2A scFv, linkers, not shown: another chain or arm of the molecule; small tags and cut ends)
VH: QVQLVQSGAEVKKPGASVKVSCKASGYTFTDYYMNWVRQAPGRGLEWMGVFNPYNGDTRYTQKFKDRVTMTIDKSISTAYMELSRLRSDDTAVYYCARLRLLYDTSEYYVMDYWGQGTTVTVSS
VL: ENVLTQSPATLSLSPGERATLSCSASSSVNYMHWYQQKPGQSPRLLIYDTSKLASGIPARFSGSGSGTDYTLTISSLEPEDFAVYFCFQGSGYPYTFGGGTKVEIK
T cells mediated cytotoxicity (lactate dehydrogenase assay), EC50 [6]: 0.02 nM

EC50 (read off the curve) [3]: 5 nM
B6: CD3x5T4-IM51xNKG2A (protein, part only; not given: anti-CD3 Fab, anti-NKG2A scFv, linkers, not shown: another chain or arm of the molecule; small tags and cut ends)
VH: QVQLVQSGAEVKKPGASVKVSCKASGYTFTDYYMNWVRQAPGQGLEWMGVFNPYNGDTRYTQKFKDRVTMTRDTSISTAYMELSRLRSDDTAVYYCARLRLLYDTSEYYVMDYWGQGTTVTVSS
VL: ENVLTQSPATLSLSPGERATLSCSASSSVNYMHWYQQKPGQSPRLLIYDTSKLASGIPARFSGSGSGTDYTLTISSLEPEDFAVYFCFQGSGYPYTFGGGTKVEIK

EC50 [4]: 1.24 nM
EC50 [5]: 1.4 nM
B7: IM-1178 Tribody (CD3x5T4_IM24xNKG2D) (protein, part only; not given: anti-CD3 Fab, anti-NKG2D scFv, linkers, not shown: another chain or arm of the molecule; small tags and cut ends)
VH: QVQLVQSGAEVKKPGASVKLTCTASGYTFTAYYMHWMRQAPGQGLEWMGIVLPGRGSTNYAQKFQGRVTVTRDTSTNTVYMELNSLTSEDTAVYYCVRGYRDFDYWGPGTLVTVSS
VL: ELVLTQSPATLSLSPGERATLSCKASQNVGTAVAWYQQKPGQAPRLLIYSASNRYTGIPARFSGSGSGTDFTLTVSSLEPEDFAVYYCQQYTSYPRTFGQGTKVEIK

Reference: patent US20240228658A1
